Data: article PMC11561763

Target: glutathione S-transferase fusion from pGEX-6P1 possessing a C-terminal optimized tetracysteine motif (GST-TC12)
Experiment: SEC; Superdex 75 Increase 10/300, 50 mM Tris pH 7.5, 150 mM NaCl; quenched one-pot ligation mixtures (Ub or SUMO, SrtCrAsH, eSrtA, GST-TC12); peaks collected and analysed by ESI-MS

Sequence of glutathione S-transferase fusion from pGEX-6P1 possessing a C-terminal optimized tetracysteine motif (GST-TC12) (P08515 2-218): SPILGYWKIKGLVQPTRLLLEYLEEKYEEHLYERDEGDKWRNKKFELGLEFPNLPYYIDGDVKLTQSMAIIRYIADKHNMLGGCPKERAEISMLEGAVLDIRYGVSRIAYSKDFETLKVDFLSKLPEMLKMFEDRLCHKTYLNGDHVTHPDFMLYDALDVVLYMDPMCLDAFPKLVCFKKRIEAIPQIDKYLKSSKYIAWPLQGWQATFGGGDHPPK

glutathione S-transferase fusion from pGEX-6P1 possessing a C-terminal optimized tetracysteine motif (GST-TC12) (natural protein)
stoichiometry N: 2
